According to US20190375786A1, “STABLE PEPTIDES AND METHODS OF USE THEREOF” (Fred Hutchinson Cancer Research Center, priority 2016, published 2019):

Biological target: pepsin (Sus scrofa, UniProt P00791)
Sequence (P00791 60-385): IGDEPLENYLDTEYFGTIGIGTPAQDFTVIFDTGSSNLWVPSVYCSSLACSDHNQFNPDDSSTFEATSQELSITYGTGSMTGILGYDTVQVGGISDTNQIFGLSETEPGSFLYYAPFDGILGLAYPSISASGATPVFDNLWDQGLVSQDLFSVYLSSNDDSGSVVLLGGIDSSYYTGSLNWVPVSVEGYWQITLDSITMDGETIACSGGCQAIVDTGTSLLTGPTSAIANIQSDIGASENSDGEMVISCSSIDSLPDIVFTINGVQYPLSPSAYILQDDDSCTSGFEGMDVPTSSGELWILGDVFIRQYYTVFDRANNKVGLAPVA
Assay: Pepsin digestion resistance in simulated gastric fluid, RP-HPLC
Format: in vitro ADME, porcine
Design: purchased Sigma Aldrich P7012
Details: 500 U/ml pepsin in SGF pH 1.05, 30 minutes at 37.5° C.; HPLC peak vs untreated peptide
In short: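 Peptide (12.5 μg) incubated 30 min at 37.5 °C with or without 500 U/ml pepsin in simulated gastric fluid (pH 1.05; 2% NaCl in 0.7% HCl); some reactions quenched with 100 mM Tris and 10 mM DTT. Intact peptide followed by C-18 RP-HPLC (5–45% acetonitrile/0.1% TFA over 10 min) at 214 and 280 nm.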
With “25 (GSACLAEYQKCEGSTVPCCPGLSCSAGRFRKTKLCTK) [compound 25]” the “Resistance to Pepsin (500 U/ml)” value was “High (A peptide classified as high indicates that the majority (at least 75%) of the HPLC peak of the treated peptide is still present as compared to the HPLC peak of the untreated peptide)”.
In the case of “23 (GSEVIRCSGSKQCYGPCKQQTGCTNSKCMNKVCKCYGCG) [compound 23]”, the “Resistance to Pepsin (500 U/ml)” value is reported as “High (A peptide classified as high indicates that the majority (at least 75%) of the HPLC peak of the treated peptide is still present as compared to the HPLC peak of the untreated peptide)”.
In the case of “34 (GSGCFGYKCDYYKGCCSGYVCSPTWKWCVRPGPGR) [compound 34]”, the “Resistance to Pepsin (500 U/ml)” value is reported as “Low (A peptide classified as low indicates that the majority (over 75%) of the HPLC peak of the treated peptide disappeared as compared to the HPLC peak of the untreated peptide)”.
With “49 (GSSFGLCRLRRGFCARGRCRFPSIPIGRCSRFVQCCRRVW) [compound 49]” the “Resistance to Pepsin (500 U/ml)” value was “High (A peptide classified as high indicates that the majority (at least 75%) of the HPLC peak of the treated peptide is still present as compared to the HPLC peak of the untreated peptide)”.
For “13 (GSAEIIRCSGTRECYAPCQKLTGCLNAKCMNKACKCYGCV) [compound 13]”, the “Resistance to Pepsin (500 U/ml)” value was “High (A peptide classified as high indicates that the majority (at least 75%) of the HPLC peak of the treated peptide is still present as compared to the HPLC peak of the untreated peptide)”.

System: not listed separately
Assay: Resistance to elevated temperature, HPLC
Format: physicochemical
Details: 70° C. for one hour; HPLC peak vs untreated peptide
Method: (§1) Peptides were first suspended in 500 μl of ddH2O to a stock concentration of 2 mg/ml. Reactions were prepared by adding 12.5 μg of peptide from the stock solution to a 10 mM solution of DTT in PBS and allowed to incubate at room temperature for 30 minutes. Other reactions were prepared with 12.5 μg peptide and 500 U/ml trypsin in 25 mM Tris/75 mM NaCl buffer (pH 7.0) and incubated for 30 minutes at 37.5° C. These reactions were then quenched with 5 μg of soybean trypsin inhibitor (I) and, in some cases, 10 mM dithiothreitol (DTT). Reversed phase HPLC (RP-HPLC) was run on samples using an Agilent 1260 HPLC equipped with a C-18 Poroshell 120B column. Sample were analyzed by a gradient method with a mobile phase of Solvent A (water with 0.1% TFA) and Solvent B (acetonitrile with 0.1% TFA). Solvent B was ramped up from 5%-45% of the mobile phase over a period of 10 minutes. For testing pepsin digestion resistance, reactions were prepared with 12.5 μg peptide with or without 500 U/ml pepsin in simulated gastric fluid (SGF; pH 1.05; […] sodium chloride in 0.7% (v/v) hydrochloric acid) and were incubated for 30 minutes at 37.5° C. For testing temperature resistance, peptides were incubated at 70° C., 75° C., or 100° C. for one hour in 0.5 mM PBS, pelleted, and then the supernatant was analyzed by HPLC.
This example illustrates peptide stability at high temperatures. Peptides were first suspended in 500 μl of ddH2O to a stock concentration of 2 mg/ml. Reactions were prepared by adding 6.25 μl of peptide from the stock solution with 95 μl ddH2O and incubated at room temperature, 70° C., or 100° C. for one hour in a Thermocycler. RP-HPLC was then run on samples using an Agilent 1260 HPLC equipped with a C-18 Poroshell 120B column. Sample were analyzed by a gradient method with a mobile phase of Solvent A (water with 0.1% TFA) and Solvent B (acetonitrile with 0.1% TFA). Solvent B was ramped up from 5%-45% of the mobile phase over a period of 10 minutes.
For “25 (GSACLAEYQKCEGSTVPCCPGLSCSAGRFRKTKLCTK) [compound 25]”, the “Resistance to Temperature (70° C.)” value was “High (A peptide classified as high indicates that the majority (at least 75%) of the HPLC peak of the treated peptide is still present as compared to the HPLC peak of the untreated peptide)”.

Same assay, conditions: 75° C. for one hour; HPLC peak vs untreated peptide
For “25 (GSACLAEYQKCEGSTVPCCPGLSCSAGRFRKTKLCTK) [compound 25]”, the “Resistance to Temperature (75° C.)” value was “High (A peptide classified as high indicates that the majority (at least 75%) of the HPLC peak of the treated peptide is still present as compared to the HPLC peak of the untreated peptide)”.
For “23 (GSEVIRCSGSKQCYGPCKQQTGCTNSKCMNKVCKCYGCG) [compound 23]”, the “Resistance to Temperature (75° C.)” value was “High (A peptide classified as high indicates that the majority (at least 75%) of the HPLC peak of the treated peptide is still present as compared to the HPLC peak of the untreated peptide)”.
In the case of “34 (GSGCFGYKCDYYKGCCSGYVCSPTWKWCVRPGPGR) [compound 34]”, the “Resistance to Temperature (75° C.)” value is reported as “High (A peptide classified as high indicates that the majority (at least 75%) of the HPLC peak of the treated peptide is still present as compared to the HPLC peak of the untreated peptide)”.
For “49 (GSSFGLCRLRRGFCARGRCRFPSIPIGRCSRFVQCCRRVW) [compound 49]”, the “Resistance to Temperature (75° C.)” value was “High (A peptide classified as high indicates that the majority (at least 75%) of the HPLC peak of the treated peptide is still present as compared to the HPLC peak of the untreated peptide)”.
With “13 (GSAEIIRCSGTRECYAPCQKLTGCLNAKCMNKACKCYGCV) [compound 13]” the “Resistance to Temperature (75° C.)” value was “High (A peptide classified as high indicates that the majority (at least 75%) of the HPLC peak of the treated peptide is still present as compared to the HPLC peak of the untreated peptide)”.

Same assay, conditions: 100° C. for one hour; HPLC peak vs untreated peptide
In the case of “25 (GSACLAEYQKCEGSTVPCCPGLSCSAGRFRKTKLCTK) [compound 25]”, the “Resistance to Temperature (100° C.)” value is reported as “Low (A peptide classified as low indicates that the majority (over 75%) of the HPLC peak of the treated peptide disappeared as compared to the HPLC peak of the untreated peptide)”.
In the case of “23 (GSEVIRCSGSKQCYGPCKQQTGCTNSKCMNKVCKCYGCG) [compound 23]”, the “Resistance to Temperature (100° C.)” value is reported as “Low (A peptide classified as low indicates that the majority (over 75%) of the HPLC peak of the treated peptide disappeared as compared to the HPLC peak of the untreated peptide)”.
With “34 (GSGCFGYKCDYYKGCCSGYVCSPTWKWCVRPGPGR) [compound 34]” the “Resistance to Temperature (100° C.)” value was “Low (A peptide classified as low indicates that the majority (over 75%) of the HPLC peak of the treated peptide disappeared as compared to the HPLC peak of the untreated peptide)”.
For “49 (GSSFGLCRLRRGFCARGRCRFPSIPIGRCSRFVQCCRRVW) [compound 49]”, the “Resistance to Temperature (100° C.)” value was “Low (A peptide classified as low indicates that the majority (over 75%) of the HPLC peak of the treated peptide disappeared as compared to the HPLC peak of the untreated peptide)”.
For “13 (GSAEIIRCSGTRECYAPCQKLTGCLNAKCMNKACKCYGCV) [compound 13]”, the “Resistance to Temperature (100° C.)” value was “High (A peptide classified as high indicates that the majority (at least 75%) of the HPLC peak of the treated peptide is still present as compared to the HPLC peak of the untreated peptide)”.

Biological target: trypsin (Sus scrofa, UniProt P00761)
Sequence (P00761 9-231): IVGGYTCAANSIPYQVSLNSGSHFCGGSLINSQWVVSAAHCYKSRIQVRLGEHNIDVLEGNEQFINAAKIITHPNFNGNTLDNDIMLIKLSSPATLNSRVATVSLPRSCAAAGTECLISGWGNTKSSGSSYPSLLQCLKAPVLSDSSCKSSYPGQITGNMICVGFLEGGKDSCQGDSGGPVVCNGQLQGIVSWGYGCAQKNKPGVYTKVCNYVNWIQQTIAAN
Assay: Trypsin digestion resistance of soluble peptide, RP-HPLC
Format: in vitro ADME, porcine
Design: purchased Sigma Aldrich 6567
Details: 500 U/ml trypsin, 30 minutes at 37.5° C.; HPLC peak vs untreated peptide
In short: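 12.5 μg soluble peptide digested with 500 U/ml porcine trypsin in PBS, 30 min at 37.5° C; quenched with soybean trypsin inhibitor, with or without 10 mM DTT reduction afterwards. Intact peptide assessed by C-18 RP-HPLC, 5-45% acetonitrile/0.1% TFA gradient over 10 min.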
For “25 (GSACLAEYQKCEGSTVPCCPGLSCSAGRFRKTKLCTK) [compound 25]”, the “Resistance to Trypsin (500 U/ml)” value was “Low (A peptide classified as low indicates that the majority (over 75%) of the HPLC peak of the treated peptide disappeared as compared to the HPLC peak of the untreated peptide)”.
With “23 (GSEVIRCSGSKQCYGPCKQQTGCTNSKCMNKVCKCYGCG) [compound 23]” the “Resistance to Trypsin (500 U/ml)” value was “Low (A peptide classified as low indicates that the majority (over 75%) of the HPLC peak of the treated peptide disappeared as compared to the HPLC peak of the untreated peptide)”.
With “34 (GSGCFGYKCDYYKGCCSGYVCSPTWKWCVRPGPGR) [compound 34]” the “Resistance to Trypsin (500 U/ml)” value was “Low (A peptide classified as low indicates that the majority (over 75%) of the HPLC peak of the treated peptide disappeared as compared to the HPLC peak of the untreated peptide)”.
In the case of “49 (GSSFGLCRLRRGFCARGRCRFPSIPIGRCSRFVQCCRRVW) [compound 49]”, the “Resistance to Trypsin (500 U/ml)” value is reported as “Low (A peptide classified as low indicates that the majority (over 75%) of the HPLC peak of the treated peptide disappeared as compared to the HPLC peak of the untreated peptide)”.
With “13 (GSAEIIRCSGTRECYAPCQKLTGCLNAKCMNKACKCYGCV) [compound 13]” the “Resistance to Trypsin (500 U/ml)” value was “Low (A peptide classified as low indicates that the majority (over 75%) of the HPLC peak of the treated peptide disappeared as compared to the HPLC peak of the untreated peptide)”.

System: not listed separately
Assay: Resistance to reduction by DTT, RP-HPLC
Format: physicochemical
Details: 10 mM DTT in PBS, room temperature, 30 minutes; HPLC peak vs untreated peptide
Method: Peptides were first suspended in 500 ul of ddH2O to a stock concentration of 2 mg/ml. Reactions were prepared by adding 12.5 ug of peptide from the stock solution to a 10 mM solution of DTT in PBS and allowed to incubate at room temperature for 30 minutes. Other reactions were prepared with 12.5 μg peptide with or without 500 U/ml pepsin in simulated gastric fluid (SGF; pH 1.05; […] sodium chloride in 0.7% (v/v) hydrochloric acid) and were incubated for 30 minutes at 37.5° C. Some reactions were quenched with a final concentration of 100 mM Tris base and 10 mM dithiothreitol (DTT). Some reactions were performed in all of the above components, including simulated gastric fluid, pepsin, Tris, and DTT (referred to as SPTD). Reversed phase HPLC (RP-HPLC) was run on samples using an Agilent 1260 HPLC equipped with a C-18 Poroshell 120B column. Sample were analyzed by a gradient method with a mobile phase of Solvent A (water with 0.1% TFA) and Solvent B (acetonitrile with 0.1% TFA). Solvent B was ramped up from 5%-45% of the mobile phase over a period of 10 minutes. Peptides were detected at an absorbance of 214 nm and 280 nm.
as §1
This example illustrates peptide stability in biological conditions including in the presence of reducing agents, proteases, oxidative conditions, acidic conditions, and simulated gastric fluids. […] Various peptides were suspended in 500 μl of ddH2O at a stock concentration of 2 mg/ml. This was then diluted in accord with the reaction conditions to prevent adverse buffering effects. Reactions were prepared with 12.5 μg peptide dissolved in solution and, in some samples, additionally suspended in a 10 mM solution of DTT, simulated gastric fluid (pH 1.05; […] sodium chloride in 0.7% (v/v) hydrochloric acid), 500 U pepsin (5000 U/ml pepsin), 50 U trypsin (500 U/ml trypsin) with 1 mg/ml inhibitor in PBS, or a combination of any of these conditions. All protease reactions were incubated for 30 min at room temperature and then quenched. Pepsin reactions were quenched by adding Tris base to a final concentration of 0.075 M. Trypsin reactions were quenched by adding excess soybean trypsin inhibitor. RP-HPLC was then run on samples using an Agilent 1260 HPLC equipped with a C-18 Poroshell 120B column. Sample were analyzed by a gradient method with a mobile phase of Solvent A (water with 0.1% TFA) and Solvent B (acetonitrile with 0.1% TFA). Solvent B was ramped up from 5%-45% of the mobile phase over a period of 10 minutes.
FIG. 18 illustrates high performance liquid chromatograph (HPLC) traces of peptides in non-reducing (NR) conditions (solid trace) or in 10 mM DTT reducing (R) conditions (dashed trace). […]
In the case of “25 (GSACLAEYQKCEGSTVPCCPGLSCSAGRFRKTKLCTK) [compound 25]”, the “Resistance to DTT Reduction (10 mM)” value is reported as “Low (A peptide classified as low indicates that the majority (over 75%) of the HPLC peak of the treated peptide disappeared as compared to the HPLC peak of the untreated peptide)”.
With “23 (GSEVIRCSGSKQCYGPCKQQTGCTNSKCMNKVCKCYGCG) [compound 23]” the “Resistance to DTT Reduction (10 mM)” value was “Low (A peptide classified as low indicates that the majority (over 75%) of the HPLC peak of the treated peptide disappeared as compared to the HPLC peak of the untreated peptide)”.
With “34 (GSGCFGYKCDYYKGCCSGYVCSPTWKWCVRPGPGR) [compound 34]” the “Resistance to DTT Reduction (10 mM)” value was “Low (A peptide classified as low indicates that the majority (over 75%) of the HPLC peak of the treated peptide disappeared as compared to the HPLC peak of the untreated peptide)”.
For “49 (GSSFGLCRLRRGFCARGRCRFPSIPIGRCSRFVQCCRRVW) [compound 49]”, the “Resistance to DTT Reduction (10 mM)” value was “Low (A peptide classified as low indicates that the majority (over 75%) of the HPLC peak of the treated peptide disappeared as compared to the HPLC peak of the untreated peptide)”.
With “13 (GSAEIIRCSGTRECYAPCQKLTGCLNAKCMNKACKCYGCV) [compound 13]” the “Resistance to DTT Reduction (10 mM)” value was “Low (A peptide classified as low indicates that the majority (over 75%) of the HPLC peak of the treated peptide disappeared as compared to the HPLC peak of the untreated peptide)”.
